Source: paper PMC9292375, “Structural basis of an epitope tagging system derived from Haloarcula marismortui bacteriorhodopsin I D94N and its monoclonal antibody GD‐26” (The Febs Journal, 2021)

Key:
Experiment in all cases: ITC; synthetic peptide in the syringe titrated into GD-26 Fab or GD-26 IgG (10 μM) in the cell; 25 °C; 50 mM Tris, 150 mM NaCl, pH 7.5; one-set-of-sites model
Settings in all cases: both partners purified
TD peptide A7E = target: T1, TD peptide A7E (A7E (stands in the printed letters))
T1 construct: TD peptide (C terminus of HmBRI) with A7E; numbers count on: the TD peptide; source: synthetic peptide
T1 chain: GTGATPEDD

TD peptide P6A = target: T2, TD peptide P6A (P6A (stands in the printed letters))
T2 construct: TD peptide (C terminus of HmBRI) with P6A; numbers count on: the TD peptide; source: synthetic peptide
T2 chain: GTGATAADD

[1] = target: T3, TD peptide C1 (Asp9 removed) (Haloarcula marismortui (strain ATCC …))
T3 construct: TD peptide residues 1-8 (Asp9 removed); numbers count on: the TD peptide; source: synthetic peptide
T3 chain: GTGATPAD

TD peptide A7Q = target: T4, TD peptide A7Q (A7Q (stands in the printed letters))
T4 construct: TD peptide (C terminus of HmBRI) with A7Q; numbers count on: the TD peptide; source: synthetic peptide
T4 chain: GTGATPQDD

TD peptide P6G = target: T5, TD peptide P6G (P6G (stands in the printed letters))
T5 construct: TD peptide (C terminus of HmBRI) with P6G; numbers count on: the TD peptide; source: synthetic peptide
T5 chain: GTGATGADD

TD peptide D9N = target: T6, TD peptide D9N (D9N (stands in the printed letters))
T6 construct: TD peptide (C terminus of HmBRI) with D9N; numbers count on: the TD peptide; source: synthetic peptide
T6 chain: GTGATPADN

TD peptide P6F = target: T7, TD peptide P6F (P6F (stands in the printed letters))
T7 construct: TD peptide (C terminus of HmBRI) with P6F; numbers count on: the TD peptide; source: synthetic peptide
T7 chain: GTGATFADD

TD peptide A7W = target: T8, TD peptide A7W (A7W (stands in the printed letters))
T8 construct: TD peptide (C terminus of HmBRI) with A7W; numbers count on: the TD peptide; source: synthetic peptide
T8 chain: GTGATPWDD

TD peptide A7S = target: T9, TD peptide A7S (A7S (stands in the printed letters))
T9 construct: TD peptide (C terminus of HmBRI) with A7S; numbers count on: the TD peptide; source: synthetic peptide
T9 chain: GTGATPSDD

TD peptide A7Y = target: T10, TD peptide A7Y (A7Y (stands in the printed letters))
T10 construct: TD peptide (C terminus of HmBRI) with A7Y; numbers count on: the TD peptide; source: synthetic peptide
T10 chain: GTGATPYDD

[2] = target: T11, TD peptide C2 (Asp8 and Asp9 removed) (Haloarcula marismortui (strain ATCC …))
T11 construct: TD peptide residues 1-7 (Asp8 and Asp9 removed); numbers count on: the TD peptide; source: synthetic peptide
T11 chain: GTGATPA

TD peptide A7R = target: T12, TD peptide A7R (A7R (stands in the printed letters))
T12 construct: TD peptide (C terminus of HmBRI) with A7R; numbers count on: the TD peptide; source: synthetic peptide
T12 chain: GTGATPRDD

[3] = target: T13, TD peptide N4 (Gly1 to Ala4 deleted) (Haloarcula marismortui (strain ATCC …))
T13 construct: TD peptide residues 5-9 (Gly1, Thr2, Gly3 and Ala4 deleted); numbers count on: the TD peptide; source: synthetic peptide
T13 chain: TPADD

TD peptide A7P = target: T14, TD peptide A7P (A7P (stands in the printed letters))
T14 construct: TD peptide (C terminus of HmBRI) with A7P; numbers count on: the TD peptide; source: synthetic peptide
T14 chain: GTGATPPDD

B1: GD-26 Fab (antigen-binding fragment of monoclonal antibody GD-26) (Fab, V domains shown)
VH: QVQLRQSGPELVKPGASVKMSCRASGYTFTNYNIHWVRQRPGQGLEWIGWIYPVDGTTKYNEKFKDKTTLTSDKSSSTAYMSLSGLTSEDSAIYFCARGLDNWGQGTSVTVSS
VL: DVVLTQTPLSLSVTIGQPASISCRSSQRLLYSNGKTYLNWFQQRPGQAPKYLMFQVSKLGPGIPARFSGSGSETDFTLKISRVEAEDLGVYYCFQGTFFPHTFGGGTKLEMK
notes: Fab heavy chain of GD-26; whole chain in PDB 7DOH; light chain of GD-26; the Fab was secreted; source: Expi293F, transient co-transfection, secreted; purified (HisTrap Excel, Superdex 200 gel filtration)
B1 showed a Kd (TD peptide A7E) of 46.4 nM, a Kd (TD peptide P6A) of 140 nM and a Kd [1] of 273 nM. For the same binder, the Kd (TD peptide A7Q) was 59.3 nM, the Kd (TD peptide P6G) was 892 nM and the Kd (TD peptide D9N) was 132 nM. It also gave a Kd (TD peptide P6F) of 78.2 nM, a Kd (TD peptide A7W) of 34.4 nM and a Kd (TD peptide A7S) of 72.7 nM. The Kd (TD peptide A7Y) was 73.4 nM, the binding result [2] was “no binding” and the Kd (TD peptide A7R) was 171 nM. For the same binder, the binding result [3] was “no binding” and the Kd (TD peptide A7P) was 1040 nM.
